*1 amine or outer side, *2 acyl side, *3 side chain or, on linkers, in order; H or OH if unused. Bridges are numbered along the chain shown (N, C = ends). [ ]: non-standard residue; d: D form. The star is where a group is joined. C20 diacid = O=C(O)CCCCCCCCCCCCCCCCCCC(=O)*; γGlu = O=C(O)[C@H](CCC(=O)[*:2])N[*:1]; NMeI = CC[C@H](C)[C@H](NC)C(=O)O; Sar = CNCC(=O)O
T1: human amylin receptor 3 (hAMYR3), hCTR2 co-expressed with human receptor activity modifying protein 3 (hRAMP3) (human, UniProt P30988 25-474; O60896 24-148)
T1 sequence (looked up) 1: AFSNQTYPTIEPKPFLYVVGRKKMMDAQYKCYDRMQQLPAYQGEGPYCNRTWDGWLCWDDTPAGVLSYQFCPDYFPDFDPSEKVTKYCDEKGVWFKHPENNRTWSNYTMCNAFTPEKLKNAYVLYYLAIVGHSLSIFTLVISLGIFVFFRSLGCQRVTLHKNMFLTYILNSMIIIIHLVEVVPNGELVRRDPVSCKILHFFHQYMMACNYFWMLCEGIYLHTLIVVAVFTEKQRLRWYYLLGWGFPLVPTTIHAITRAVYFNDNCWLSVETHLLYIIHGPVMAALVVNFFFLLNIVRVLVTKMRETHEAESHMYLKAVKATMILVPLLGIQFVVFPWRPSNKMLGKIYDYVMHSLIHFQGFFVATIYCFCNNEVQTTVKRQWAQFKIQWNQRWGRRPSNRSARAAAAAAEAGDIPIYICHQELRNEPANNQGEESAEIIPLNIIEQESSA
T1 sequence (looked up) 2: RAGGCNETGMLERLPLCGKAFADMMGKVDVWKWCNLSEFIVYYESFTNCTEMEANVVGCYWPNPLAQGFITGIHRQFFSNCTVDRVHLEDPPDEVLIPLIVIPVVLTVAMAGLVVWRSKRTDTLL


Target: T1, human amylin receptor 3 (hAMYR3), hCTR2 …
Experiment: cell-based or functional assay

Row | Binder | hAMYR3 EC50 (nM); cAMP induction
1 | {C20 diacid-γGlu}-RCGTATCATERLAHFLVRSSF[Sar]A[NMeI]LSSTEVGSSTP-NH2 (disulfide 2-7; SMILES CC[C@H](C)[C@@H](C(=O)N[C@@H](CC(C)C)C(=O)N[C@@H](CO)C(=O)N[C@@H](CO)C(=O)N[C@H](C(=O)N[C@@H](CCC(=O)O)C(=O)N[C@H](C(=O)NCC(=O)N[C@@H](CO)C(=O)N[C@@H](CO)C(=O)N[C@H](C(=O)N1CCC[C@H]1C(N)=O)[C@@H](C)O)C(C)C)[C@@H](C)O)N(C)C(=O)[C@H](C)NC(=O)CN(C)C(=O)[C@H](Cc1ccccc1)NC(=O)[C@H](CO)NC(=O)[C@H](CO)NC(=O)[C@H](CCCNC(=N)N)NC(=O)[C@@H](NC(=O)[C@H](CC(C)C)NC(=O)[C@H](Cc1ccccc1)NC(=O)[C@H](Cc1c[nH]cn1)NC(=O)[C@H](C)NC(=O)[C@H](CC(C)C)NC(=O)[C@H](CCCNC(=N)N)NC(=O)[C@H](CCC(=O)O)NC(=O)[C@@H](NC(=O)[C@H](C)NC(=O)[C@@H]1CSSC[C@H](NC(=O)[C@H](CCCNC(=N)N)NC(=O)CC[C@H](NC(=O)CCCCCCCCCCCCCCCCCCC(=O)O)C(=O)O)C(=O)NCC(=O)N[C@@H]([C@@H](C)O)C(=O)N[C@@H](C)C(=O)N[C@@H]([C@@H](C)O)C(=O)N1)[C@@H](C)O)C(C)C) [[19CD]-isoGlu-R-C( )-GTAT-C( )-ATERLAHFLVRSSF-Gly(Me)-A-Ile(Me)-LSSTEVGSSTP-NH2 (Compd. 38)] | 0.12 nM
2 | {C20 diacid}-[γGlu]RCGTATCATERLAHFLHRSSF[Sar]A[NMeI]LSSTEVGSSTP-NH2 (disulfide 3-8; SMILES CC[C@H](C)[C@@H](C(=O)N[C@@H](CC(C)C)C(=O)N[C@@H](CO)C(=O)N[C@@H](CO)C(=O)N[C@H](C(=O)N[C@@H](CCC(=O)O)C(=O)N[C@H](C(=O)NCC(=O)N[C@@H](CO)C(=O)N[C@@H](CO)C(=O)N[C@H](C(=O)N1CCC[C@H]1C(N)=O)[C@@H](C)O)C(C)C)[C@@H](C)O)N(C)C(=O)[C@H](C)NC(=O)CN(C)C(=O)[C@H](Cc1ccccc1)NC(=O)[C@H](CO)NC(=O)[C@H](CO)NC(=O)[C@H](CCCNC(=N)N)NC(=O)[C@H](Cc1c[nH]cn1)NC(=O)[C@H](CC(C)C)NC(=O)[C@H](Cc1ccccc1)NC(=O)[C@H](Cc1c[nH]cn1)NC(=O)[C@H](C)NC(=O)[C@H](CC(C)C)NC(=O)[C@H](CCCNC(=N)N)NC(=O)[C@H](CCC(=O)O)NC(=O)[C@@H](NC(=O)[C@H](C)NC(=O)[C@@H]1CSSC[C@H](NC(=O)[C@H](CCCNC(=N)N)NC(=O)CC[C@H](NC(=O)CCCCCCCCCCCCCCCCCCC(=O)O)C(=O)O)C(=O)NCC(=O)N[C@@H]([C@@H](C)O)C(=O)N[C@@H](C)C(=O)N[C@@H]([C@@H](C)O)C(=O)N1)[C@@H](C)O) [[19CD]-isoGlu-R-C( )-GTAT-C( )-ATERLAHFLHRSSF-Gly(Me)-A-Ile(Me)-LSSTEVGSSTP-NH2 (Compd. 37)] | 0.07 nM
3 | {C20 diacid}-[γGlu]RCGTATCATERLAHFLNRSSF[Sar]A[NMeI]LSSTEVGSSTP-NH2 (disulfide 3-8; SMILES CC[C@H](C)[C@@H](C(=O)N[C@@H](CC(C)C)C(=O)N[C@@H](CO)C(=O)N[C@@H](CO)C(=O)N[C@H](C(=O)N[C@@H](CCC(=O)O)C(=O)N[C@H](C(=O)NCC(=O)N[C@@H](CO)C(=O)N[C@@H](CO)C(=O)N[C@H](C(=O)N1CCC[C@H]1C(N)=O)[C@@H](C)O)C(C)C)[C@@H](C)O)N(C)C(=O)[C@H](C)NC(=O)CN(C)C(=O)[C@H](Cc1ccccc1)NC(=O)[C@H](CO)NC(=O)[C@H](CO)NC(=O)[C@H](CCCNC(=N)N)NC(=O)[C@H](CC(N)=O)NC(=O)[C@H](CC(C)C)NC(=O)[C@H](Cc1ccccc1)NC(=O)[C@H](Cc1c[nH]cn1)NC(=O)[C@H](C)NC(=O)[C@H](CC(C)C)NC(=O)[C@H](CCCNC(=N)N)NC(=O)[C@H](CCC(=O)O)NC(=O)[C@@H](NC(=O)[C@H](C)NC(=O)[C@@H]1CSSC[C@H](NC(=O)[C@H](CCCNC(=N)N)NC(=O)CC[C@H](NC(=O)CCCCCCCCCCCCCCCCCCC(=O)O)C(=O)O)C(=O)NCC(=O)N[C@@H]([C@@H](C)O)C(=O)N[C@@H](C)C(=O)N[C@@H]([C@@H](C)O)C(=O)N1)[C@@H](C)O) [[19CD]-isoGlu-R-C( )-GTAT-C( )-ATERLAHFLNRSSF-Gly(Me)-A-Ile(Me)-LSSTEVGSSTP-NH2 (Compd. 35)] | 0.11 nM
4 | {C20 diacid}-[γGlu]RCGTATCATERLAHFLERSSF[Sar]A[NMeI]LSSTEVGSSTP-NH2 (disulfide 3-8; SMILES CC[C@H](C)[C@@H](C(=O)N[C@@H](CC(C)C)C(=O)N[C@@H](CO)C(=O)N[C@@H](CO)C(=O)N[C@H](C(=O)N[C@@H](CCC(=O)O)C(=O)N[C@H](C(=O)NCC(=O)N[C@@H](CO)C(=O)N[C@@H](CO)C(=O)N[C@H](C(=O)N1CCC[C@H]1C(N)=O)[C@@H](C)O)C(C)C)[C@@H](C)O)N(C)C(=O)[C@H](C)NC(=O)CN(C)C(=O)[C@H](Cc1ccccc1)NC(=O)[C@H](CO)NC(=O)[C@H](CO)NC(=O)[C@H](CCCNC(=N)N)NC(=O)[C@H](CCC(=O)O)NC(=O)[C@H](CC(C)C)NC(=O)[C@H](Cc1ccccc1)NC(=O)[C@H](Cc1c[nH]cn1)NC(=O)[C@H](C)NC(=O)[C@H](CC(C)C)NC(=O)[C@H](CCCNC(=N)N)NC(=O)[C@H](CCC(=O)O)NC(=O)[C@@H](NC(=O)[C@H](C)NC(=O)[C@@H]1CSSC[C@H](NC(=O)[C@H](CCCNC(=N)N)NC(=O)CC[C@H](NC(=O)CCCCCCCCCCCCCCCCCCC(=O)O)C(=O)O)C(=O)NCC(=O)N[C@@H]([C@@H](C)O)C(=O)N[C@@H](C)C(=O)N[C@@H]([C@@H](C)O)C(=O)N1)[C@@H](C)O) [[19CD]-isoGlu-R-C( )-GTAT-C( )-ATERLAHFLERSSF-Gly(Me)-A-Ile(Me)-LSSTEVGSSTP-NH2 (Compd. 36)] | 0.36 nM
5 | {C20 diacid}-[γGlu]RCGTATCATERLAHFLQRSSF[Sar]A[NMeI]LSSTEVGSSTP-NH2 (disulfide 3-8; SMILES CC[C@H](C)[C@@H](C(=O)N[C@@H](CC(C)C)C(=O)N[C@@H](CO)C(=O)N[C@@H](CO)C(=O)N[C@H](C(=O)N[C@@H](CCC(=O)O)C(=O)N[C@H](C(=O)NCC(=O)N[C@@H](CO)C(=O)N[C@@H](CO)C(=O)N[C@H](C(=O)N1CCC[C@H]1C(N)=O)[C@@H](C)O)C(C)C)[C@@H](C)O)N(C)C(=O)[C@H](C)NC(=O)CN(C)C(=O)[C@H](Cc1ccccc1)NC(=O)[C@H](CO)NC(=O)[C@H](CO)NC(=O)[C@H](CCCNC(=N)N)NC(=O)[C@H](CCC(N)=O)NC(=O)[C@H](CC(C)C)NC(=O)[C@H](Cc1ccccc1)NC(=O)[C@H](Cc1c[nH]cn1)NC(=O)[C@H](C)NC(=O)[C@H](CC(C)C)NC(=O)[C@H](CCCNC(=N)N)NC(=O)[C@H](CCC(=O)O)NC(=O)[C@@H](NC(=O)[C@H](C)NC(=O)[C@@H]1CSSC[C@H](NC(=O)[C@H](CCCNC(=N)N)NC(=O)CC[C@H](NC(=O)CCCCCCCCCCCCCCCCCCC(=O)O)C(=O)O)C(=O)NCC(=O)N[C@@H]([C@@H](C)O)C(=O)N[C@@H](C)C(=O)N[C@@H]([C@@H](C)O)C(=O)N1)[C@@H](C)O) [[19CD]-isoGlu-R-C( )-GTAT-C( )-ATERLAHFLQRSSF-Gly(Me)-A-Ile(Me)-LSSTEVGSSTP-NH2 (Compd. 34)] | 0.12 nM
6 | {C20 diacid}-[γGlu]RCGTATCATERLAHFLQRSSF[Sar]A[NMeI]LSSTEVGSFTP-NH2 (disulfide 3-8; SMILES CC[C@H](C)[C@@H](C(=O)N[C@@H](CC(C)C)C(=O)N[C@@H](CO)C(=O)N[C@@H](CO)C(=O)N[C@H](C(=O)N[C@@H](CCC(=O)O)C(=O)N[C@H](C(=O)NCC(=O)N[C@@H](CO)C(=O)N[C@@H](Cc1ccccc1)C(=O)N[C@H](C(=O)N1CCC[C@H]1C(N)=O)[C@@H](C)O)C(C)C)[C@@H](C)O)N(C)C(=O)[C@H](C)NC(=O)CN(C)C(=O)[C@H](Cc1ccccc1)NC(=O)[C@H](CO)NC(=O)[C@H](CO)NC(=O)[C@H](CCCNC(=N)N)NC(=O)[C@H](CCC(N)=O)NC(=O)[C@H](CC(C)C)NC(=O)[C@H](Cc1ccccc1)NC(=O)[C@H](Cc1c[nH]cn1)NC(=O)[C@H](C)NC(=O)[C@H](CC(C)C)NC(=O)[C@H](CCCNC(=N)N)NC(=O)[C@H](CCC(=O)O)NC(=O)[C@@H](NC(=O)[C@H](C)NC(=O)[C@@H]1CSSC[C@H](NC(=O)[C@H](CCCNC(=N)N)NC(=O)CC[C@H](NC(=O)CCCCCCCCCCCCCCCCCCC(=O)O)C(=O)O)C(=O)NCC(=O)N[C@@H]([C@@H](C)O)C(=O)N[C@@H](C)C(=O)N[C@@H]([C@@H](C)O)C(=O)N1)[C@@H](C)O) [[19CD]-isoGlu-R-C( )-GTAT-C( )-ATERLAHFLQRSSF-Gly(Me)-A-Ile(Me)-LSSTEVGSFTP-NH2 (Compd. 39)] | 0.22 nM
7 | {C20 diacid}-[γGlu]RCGTATCATERLAHFLNRSSF[Sar]A[NMeI]LSSTEVGSFTP-NH2 (disulfide 3-8; SMILES CC[C@H](C)[C@@H](C(=O)N[C@@H](CC(C)C)C(=O)N[C@@H](CO)C(=O)N[C@@H](CO)C(=O)N[C@H](C(=O)N[C@@H](CCC(=O)O)C(=O)N[C@H](C(=O)NCC(=O)N[C@@H](CO)C(=O)N[C@@H](Cc1ccccc1)C(=O)N[C@H](C(=O)N1CCC[C@H]1C(N)=O)[C@@H](C)O)C(C)C)[C@@H](C)O)N(C)C(=O)[C@H](C)NC(=O)CN(C)C(=O)[C@H](Cc1ccccc1)NC(=O)[C@H](CO)NC(=O)[C@H](CO)NC(=O)[C@H](CCCNC(=N)N)NC(=O)[C@H](CC(N)=O)NC(=O)[C@H](CC(C)C)NC(=O)[C@H](Cc1ccccc1)NC(=O)[C@H](Cc1c[nH]cn1)NC(=O)[C@H](C)NC(=O)[C@H](CC(C)C)NC(=O)[C@H](CCCNC(=N)N)NC(=O)[C@H](CCC(=O)O)NC(=O)[C@@H](NC(=O)[C@H](C)NC(=O)[C@@H]1CSSC[C@H](NC(=O)[C@H](CCCNC(=N)N)NC(=O)CC[C@H](NC(=O)CCCCCCCCCCCCCCCCCCC(=O)O)C(=O)O)C(=O)NCC(=O)N[C@@H]([C@@H](C)O)C(=O)N[C@@H](C)C(=O)N[C@@H]([C@@H](C)O)C(=O)N1)[C@@H](C)O) [[19CD]-isoGlu-R-C( )-GTAT-C( )-ATERLAHFLNRSSF-Gly(Me)-A-Ile(Me)-LSSTEVGSFTP-NH2 (Compd. 40)] | 0.19 nM

From patent US20160272693A1 (ZEALAND PHARMA A S, published 2016)
